B1: CPEB3 Ribozyme (parent)
chain: UAACAGGGGGCCACAGCAGAAGCGUUCACGUCGCAGCCCCUGUCAGAUUCUGGUGAAUCUGCGAAUUCUGCUGUAUAUCUC

Variants of: B1
Assay: self-cleavage, relative activity (ratio to wild type); higher = more cleavage; in vitro, sequencing
How it was run: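 For each CPEB3 ribozyme variant, relative activity is its cleaved/total read fraction divided by the unmutated ribozyme's. Barcoded error-prone PCR libraries were transcribed by T7 RNA polymerase (5 hours, 37°C) and held in DNase I for 15 min before an EDTA stop, with cleavage occurring throughout. Template-switching reverse transcription and Illumina sequencing were used to read the RNAs. A 5-read minimum applied, and results are the mean of three batches.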

| Variant | self-cleavage |
| --- | --- |
| U48C A64C | 0.18 |
| U48C A64U | 0.27 |
| U48C A64G | 0.41 |
| U48G A57G | 0.4 |
| U48G A57C | 1.11 |
| U48G A57U | 1.07 |
| U48C A56G | 0.38 |
| U48C A56C | 0.33 |
| U48C A56U | 0.38 |
| U48G A64G | 0.45 |
| U48G A64U | 0.17 |
| U49A G73A | 1.28 |
| U49A U54A | 0.81 |
| U49A U54G | 0.27 |
| U49A U54C | 0.54 |
| U49A G63C | 0.88 |
| U49A G63A | 0.69 |
| U49A G63U | 0.63 |
| U48C C68A | 0.34 |
| U48C C68G | 0.18 |
| U49A U51C | 0.66 |
| U49A U51A | 0.45 |
| U48G G53C | 0.55 |
| U48C C50A | 0.25 |

| Variant | self-cleavage |
| --- | --- |
| U48C C50U | 0.54 |
| U48C U51G | 0.33 |
| U48C U51A | 0.42 |
| U48C U51C | 0.49 |
| U48G U78C | 0.59 |
| U49A C59A | 0.34 |
| U49A C59U | 0.19 |
| U48G U80C | 0.6 |
| U49A A57G | 0.5 |
| U49A A57U | 0.4 |
| U48C U60G | 0.33 |
| U48C U60C | 0.26 |
| U48C U60A | 0.26 |
| U48A U72C | 0.45 |
| U48A U72G | 0.58 |
| U48A U72A | 0.22 |
| U48C U76C | 0.67 |
| U48C U76A | 0.72 |
| U49A U58C | 0.33 |
| U49A U58A | 0.21 |
| U49A G52A | 0.84 |
| U48C C59A | 0.19 |
| U48C C59U | 0.39 |
| U48C U69A | 0.37 |

| Variant | self-cleavage |
| --- | --- |
| U48C U69C | 0.32 |
| U48C U69G | 0.36 |
| U49A A77U | 0.9 |
| U49A A77G | 0.46 |
| U48A U74A | 0.98 |
| U49A G53A | 0.79 |
| U48C G73U | 0.95 |
| U48C G73C | 1.23 |
| U48C U72C | 0.7 |
| U48C U72A | 0.4 |
| U49A A75U | 0.64 |
| U49A A75G | 0.39 |
| U48C C81U | 1 |
| U49A C79U | 1.07 |
| U48C G53A | 0.69 |
| U48A U58G | 0.18 |
| U48A U58C | 0.29 |
| U49A G61C | 0.19 |
| U48C A75G | 0.43 |
| U48C A75U | 0.71 |
| U48C A75C | 1.07 |
| U48G U51C | 0.53 |
| U48C G55C | 0.36 |
| U48C G55A | 0.32 |

| Variant | self-cleavage |
| --- | --- |
| U48C A77U | 0.65 |
| U48C A77C | 0.61 |
| U48C A77G | 0.6 |
| U49A A65C | 0.13 |
| U49A A65U | 0.47 |
| U49A A65G | 0.29 |
| U48C U54C | 0.4 |
| U48C U54G | 0.38 |
| U48C U54A | 0.71 |
| U48C G61C | 0.18 |
| U48C G61A | 0.33 |
| U49A C50A | 0.5 |
| U48G U66C | 0.45 |
| U48C | 0.65 |
| U48G | 0.5 |
| U48C A57G | 1.11 |
| U48C A57U | 0.58 |
| U48C A57C | 0.5 |
| U48G U72A | 0.44 |
| U48G U72C | 0.44 |
| U48G U54C | 0.19 |
| U48A U66G | 0.43 |
| U48A U66A | 0.36 |
| U48A U66C | 0.16 |

| Variant | self-cleavage |
| --- | --- |
| U49A C71G | 0.24 |
| U49A C71U | 0.26 |
| U48G U49C | 0.46 |
| U48G U49A | 0.52 |
| U48G A65G | 0.23 |
| U48C A65U | 0.27 |
| U48C A65G | 0.27 |
| U48C A65C | 0.21 |
| U48C C79U | 0.88 |
| U48C C79A | 0.89 |
| U48C C79G | 0.74 |
| U49A A56U | 1.19 |
| U49A A56G | 0.59 |
| U48C C62U | 0.33 |
| U48G U69C | 0.34 |
| U48G U69A | 0.21 |
| U48A U76C | 0.67 |
| U48A U76A | 0.5 |
| U48G U60G | 0.22 |
| U49A A64G | 0.51 |
| U49A A64U | 0.25 |
| U48A U78C | 0.35 |
| U48A U78A | 0.42 |
| U48C U66C | 0.27 |

| Variant | self-cleavage |
| --- | --- |
| U48C U66A | 0.44 |
| U48C U74G | 1.02 |
| U48C U74C | 1.02 |
| U48C U74A | 0.88 |
| U48C U58C | 0.34 |
| U48C U58G | 0.25 |
| U48C U58A | 0.23 |
| U48C G70A | 0.19 |
| U48C G70C | 0.21 |
| U49A G55A | 0.78 |
| U49A G55C | 0.62 |
| U48C U80A | 0.68 |
| U48C U80C | 0.68 |
| U48C G63C | 0.47 |
| U48C G63U | 0.57 |
| U48C G63A | 0.64 |
| U48G A56G | 0.28 |
| U49A G70A | 0.49 |
| U49A G70U | 0.24 |
| U48C U67C | 0.3 |
| U48C U67A | 0.3 |
| U48C U78C | 0.54 |
| U48C U78A | 0.86 |
| U48C U78G | 0.94 |

| Variant | self-cleavage |
| --- | --- |
| U49A | 0.71 |
| U48A U80C | 0.57 |
| U48A U80A | 0.87 |
| U48C C71A | 0.49 |
| U48C C71U | 0.32 |
| U48G U76A | 0.43 |
| U48G A75G | 0.3 |
| U48G U67A | 0.38 |
| U49A C62A | 0.26 |
| U49A C62U | 0.44 |
| U48A U67C | 0.25 |
| U48C U49G | 0.29 |
| U48C U49A | 0.48 |
| U48C U49C | 0.32 |
| U48A U60A | 0.31 |
| U48A U60G | 0.19 |
| U48A U60C | 0.14 |
| U48A U69C | 0.44 |
| U48A U69G | 0.34 |
| U48A U69A | 0.18 |
| U48C G52U | 0.84 |
| U48C G52C | 0.42 |
| U48C G52A | 0.87 |

Source: the RNAGym collection of RNA variant scans (doi:10.1093/nar/gkz1192)
